Assay results taken from publication PMC8079461, “ApoA5 lowers triglyceride levels via suppression of ANGPTL3/8-mediated LPL inhibition” (Journal of Lipid Research, 2021).
Several values for one entry are separate records, joined by “and”; a condition that tells them apart may be missing. Identical values can stand only once.

T1: ANGPTL3/8 complex present in human serum (human (endogenous in serum)) (UniProt Q6UXH0)
T1 sequence (Q9Y5C1 17-460, looked up): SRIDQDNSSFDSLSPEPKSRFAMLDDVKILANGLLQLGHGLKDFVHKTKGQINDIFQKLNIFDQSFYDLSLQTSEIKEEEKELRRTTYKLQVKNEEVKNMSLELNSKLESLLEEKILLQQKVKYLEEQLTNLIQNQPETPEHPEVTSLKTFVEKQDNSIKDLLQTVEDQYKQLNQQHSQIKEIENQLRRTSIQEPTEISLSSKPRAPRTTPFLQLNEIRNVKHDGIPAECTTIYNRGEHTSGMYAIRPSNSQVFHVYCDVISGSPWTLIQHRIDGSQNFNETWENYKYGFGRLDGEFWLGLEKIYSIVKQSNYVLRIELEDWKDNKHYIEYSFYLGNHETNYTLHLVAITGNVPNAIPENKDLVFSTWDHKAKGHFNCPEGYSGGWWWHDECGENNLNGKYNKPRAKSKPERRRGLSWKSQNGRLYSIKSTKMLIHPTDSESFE
T1 sequence (Q6UXH0 22-198, looked up): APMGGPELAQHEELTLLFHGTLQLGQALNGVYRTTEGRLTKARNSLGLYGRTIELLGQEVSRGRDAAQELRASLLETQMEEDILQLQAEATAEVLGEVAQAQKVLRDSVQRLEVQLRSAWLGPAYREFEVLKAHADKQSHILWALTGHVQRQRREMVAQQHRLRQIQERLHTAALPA

T2: ANGPTL3/8 complex containing a FLAG-tag sequence at the C terminus of ANGPTL3 (recombinant, human) (human, UniProt Q9Y5C1 17-460; Q6UXH0 22-198)
T2 construct: human angiopoietin-like protein 3 (ANGPTL3); human angiopoietin-like protein 8 (ANGPTL8); also called Flag-tagged ANGPTL3/8 complex; human ANGPTL3/8; not shown: FLAG, C-terminal, kept; copies: 3 + 1
T2 sequence (looked up) 1: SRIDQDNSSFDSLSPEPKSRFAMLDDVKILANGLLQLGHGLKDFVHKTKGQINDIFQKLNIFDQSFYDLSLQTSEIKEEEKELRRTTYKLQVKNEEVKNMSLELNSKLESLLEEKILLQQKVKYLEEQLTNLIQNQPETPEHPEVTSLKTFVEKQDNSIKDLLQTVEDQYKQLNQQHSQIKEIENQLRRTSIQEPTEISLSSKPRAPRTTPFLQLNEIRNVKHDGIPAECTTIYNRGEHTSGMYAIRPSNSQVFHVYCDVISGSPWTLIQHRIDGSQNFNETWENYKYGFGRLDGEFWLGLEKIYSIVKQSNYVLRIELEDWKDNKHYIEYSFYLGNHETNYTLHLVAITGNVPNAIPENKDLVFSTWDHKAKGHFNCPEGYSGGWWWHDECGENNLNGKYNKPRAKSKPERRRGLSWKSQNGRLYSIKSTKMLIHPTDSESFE
T2 sequence (looked up) 2: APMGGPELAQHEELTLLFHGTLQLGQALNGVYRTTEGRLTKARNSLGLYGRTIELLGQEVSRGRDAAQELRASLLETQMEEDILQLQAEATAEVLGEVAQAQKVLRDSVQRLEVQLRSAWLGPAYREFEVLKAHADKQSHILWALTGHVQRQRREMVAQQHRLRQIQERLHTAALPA


Key:
[1] = target: ANGPTL8 in human serum (human (endogenous in serum)) (UniProt Q6UXH0); test: affinity purification with mass spectrometry; immunoprecipitation with the anti-ANGPTL3/8 antibody from 1 ml pooled human serum (three pools); on-bead Trypsin/Lys-C digest; LC-MRM with 0.25 pmole stable isotope-labeled peptides, two peptides a protein
[2] = target: T1, ANGPTL3/8 complex present in human serum (human (endogenous in serum)); test: as above
[3] = target: T2, ANGPTL3/8 complex containing a FLAG-tag …; test: BLI; Octet RED96e; FLAG-tagged ANGPTL3/8 immobilised by anti-FLAG antibody on streptavidin biosensors; 6.25-100 nM HSA-ApoA5 in solution; background reference subtraction; global fit, 1:1 binding model; settings: both partners purified
[4] = target: T2, ANGPTL3/8 complex containing a FLAG-tag …; test: cell-based or functional assay

| stoichiometry N [1] | protein ratio ApoA5/ANGPTL8 in the immunoprecipitate (ApoA5 per ANGPTL3/8 complex) [2] | Kd [3] | koff [3] | kon [3] | EC50 of HSA-ApoA5 to block the inhibition of LPL activity by 0.3 nM ANGPTL3/8 (human LPL-stable expression cells, EnzChek substrate) [4] | Molecule |
| --- | --- | --- | --- | --- | --- | --- |
| 2.8 and 2.7 | – | – | – | – | – | ANGPTL3 in human serum (natural protein) |
| – | 0.5 and 0.53 | 0.52 nM | 0.000135 s⁻¹ | 260000 M⁻¹ s⁻¹ | 21 nM | HSA-ApoA5 (HIS tag-mature HSA-PreScission cleavage site-mature human ApoA5, residues 24-366) (natural protein, UniProt Q6Q788 24-366, looked up, mature human ApoA5, residues 24-366 of NP_443200.2; Secreted by a mouse IgG kappa signal peptide; source: HEK293, transient transfection, purified from culture media (Ni-NTA, Superdex 200); not shown: His tag, N-terminal, kept; mature human serum albumin (HSA), N-terminal, kept) RKGFWDYFSQTSGDKGRVEQIHQQKMAREPATLKDSLEQDLNNMNKFLEKLRPLSGSEAPRLPQDPVGMRRQLQEELEEVKARLQPYMAEAHELVGWNLEGLRQQLKPYTMDLMEQVALRVQELQEQLRVVGEDTKAQLLGGVDEAWALLQGLQSRVVHHTGRFKELFHPYAESLVSGIGRHVQELHRSVAPHAPASPARLSRCVQVLSRKLTLKAKALHARIQQNLDQLREELSRAFAGTGTEEGAGPDPQMLSEEVRQRLQAFRQDTYLQIAAFTRAIDQETEEVQQQLAPPPPGHSAFAPEFQQTDSGKVLSKLQARLDDLWEDITHSLHDQGHSHLGDP |
